Changes are numbered by the printed parent chain. In names and notes the source's numbering stands. Marks after values point to notes of the source that are not given here.
Target: T1, bovine pancreatic trypsin (Bos taurus, UniProt P00760)
T1 construct: purchased Worthington (Worthington Biochemical Corp.)
T1 sequence (P00760 24-246): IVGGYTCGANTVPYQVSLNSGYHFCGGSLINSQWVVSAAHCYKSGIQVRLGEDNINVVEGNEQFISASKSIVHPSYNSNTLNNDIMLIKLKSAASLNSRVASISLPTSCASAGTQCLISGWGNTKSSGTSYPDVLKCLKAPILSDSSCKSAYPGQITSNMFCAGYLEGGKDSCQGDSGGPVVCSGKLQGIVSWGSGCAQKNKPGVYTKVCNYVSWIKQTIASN
Assay: BBIt-AV:BCE activity ratio, microtiter plate screens (primary, quadruplicate secondary)
Assay type: biochemical
Conditions: for BBIt-AV:BCE activity ratio relative to unmodified BBIt-AV: after activation with reducing agent (2-mercaptoethanol); for relative activity of the amino acid substitution (BBI:BCE activity ratio vs BBIt-AV), amino acid present in BBItc-AV / relative activity of the amino acid substitution (BBI:BCE activity ratio vs BBIt-AV), amino acid present in BBIsb3-AV / relative activity of the amino acid substitution (BBI:BCE activity ratio vs BBIt-AV), amino acid present in BBIdb-AV: single substitution in BBIt-AV, in the presence of reducing agent
Procedure: The cultures in each master plate were thawed and a pin replicator was used to inoculate a new sterile microtiter plate containing 150 μl of Luria broth with 5 μg/ml chloramphenicol in each well. The plates were grown for ˜10 hrs in a humidified and aerated box as described above. For controls, the cultures in two wells were replaced with BBI and BBI-AV cultures that had been grown concurrently in 15 ml culture tubes (5 ml of Luria broth with 5 μg/ml chloramphenicol). After the cultures were grown, the plate was used to inoculate two duplicate 96-well filter plates (Millipore, MSGV2210) containing 150 μl of MBD medium (Vogtentanz et al., 2007) with 5 μg/ml chloramphenicol in each well by using a pin replicator. The duplicate plates were grown for ˜14 hours (as above, with plastic spacers placed between the stacked plates to allow for efficient air flow around the plates) and then 2-mecaptoethanol was added to each well in one of the plates to a final concentration of 2 mM. The plates were then grown for an additional ˜46 hours. The 96-well filter plates containing the culture broth (with or without added 2-mecaptoethanol) were then assayed for BBI and BCE activity.
Libraries were analyzed using dilutions of cultures grown in 96-well plates. Typically, the culture broth from each well was diluted (200 fold) in Assay Buffer (100 mM Tris pH 8.6, 0.005% Tween 80) and transferred to a second microtiter plate (CoStar 9017, Corning, Inc., Corning, N.Y.). Then, 20 μl of the diluted samples were transferred to a third microtiter plate. A standard curve was created by adding 20, 10, 5 or 2.5 μl of the diluted sBBI (SEQ ID NO:13) control culture to empty wells. Then, 80 μL of 50 ng/ml trypsin (bovine pancreatic trypsin, Worthington Biochemical Corp., Lakewood, N.J.) (prepared from a 1 mg/mL stock solution diluted into Assay Buffer) was added to each well of the plate. The reactions were mixed and incubated 15 min at room temperature. After the incubation, 100 μL of 0.5 mg/ml trypsin substrate (succinyl-Ala-Ala-Pro-Arg-para-nitroanilide, Bachem Bioscience, Inc., King of Prussia, Pa.), diluted in Assay Buffer from a 100 mg/ml solution in DMSO, was added to each well, mixed, and the absorbance at 405 nm was monitored for 15 min, with 1 time point recorded every 12 sec using a Spectra Max 250 (Molecular Devices). The data points were used to determine the rate for each reaction. The standard curve was generated by plotting the reaction rate versus the BBI volume and was fitted to a four-parameter equation. All data fitting was done using software supplied by the manufacturer (Molecular Devices Corp., Sunnyvale, Calif.). The activity of each BBIt-AV variant was calculated from the standard curve. Thus, the activities of all modified variant proteins were determined relative to the activity in the sBBI control (BBI-WT) culture.
The concentration of BCE was determined by an activity assay using purified BCE as a standard as described above and by (Vogtentanz et al. 2007). For the analysis of libraries grown in 96-well microtiter plates, 20 μl of culture broth were transferred to each well of a new microtiter plate. A standard curve was created by adding 20, 10, 5 or 2.5 μl of the diluted BBI-WT control culture to these empty wells. Then, 180 μl of the BCE substrate (0.25 μg/ml in Assay Buffer), 4-nitrophenyl β-D-cellobioside (Sigma, St. Louis, Mo.), was added to the plate. The plate was mixed and the absorbance at 405 nm monitored for 15 min, with 1 time point recorded every 12 s using a Spectra Max 250 (Molecular Devices Corp., Sunnyvale, Calif.). The data points were used to determine the rate for each reaction. The standard curve was generated by plotting rate versus culture volume and was fit to a quadratic curve. The BCE concentration in each variant culture was determined relative to the standard control culture. […]

B1: BBIt-AV-F50T: BBIt-AV (SEQ ID NO:187) with single substitution F50T (protein)
chain: DDESSKPCCDQCACTKSNPPQCRCSDMRLNSCHSACKSCACYNLYGWTCTCVDITDFCYEPCKPSE
modifications: synthetic BBIt-AV sequence
BBIt-AV:BCE activity ratio relative to unmodified BBIt-AV: three-fold greater | initial BBIt-AV:BCE activity ratio relative to unmodified BBIt-AV (prior to activation): comparable to that of the unmodified BBIt-AV parent

B2: Q11R: BBIt-AV (SEQ ID NO:187) with single substitution Q11R (protein)
chain: B1 chain with Q11R, T50F
modifications: synthetic BBIt-AV sequence
relative activity of the amino acid substitution (BBI:BCE activity ratio vs BBIt-AV), amino acid present in BBItc-AV: R (+/−)

B3: A13M: BBIt-AV (SEQ ID NO:187) with single substitution A13M (protein)
chain: B1 chain with A13M, T50F
modifications: synthetic BBIt-AV sequence
relative activity of the amino acid substitution (BBI:BCE activity ratio vs BBIt-AV), amino acid present in BBIsb3-AV: M (+)***

B4: M27V: BBIt-AV (SEQ ID NO:187) with single substitution M27V (protein)
chain: B1 chain with M27V, T50F
modifications: synthetic BBIt-AV sequence
relative activity of the amino acid substitution (BBI:BCE activity ratio vs BBIt-AV), amino acid present in BBIdb-AV: V (+/−)

B5: N18M: BBIt-AV (SEQ ID NO:187) with single substitution N18M (protein)
chain: B1 chain with N18M, T50F
modifications: synthetic BBIt-AV sequence
relative activity of the amino acid substitution (BBI:BCE activity ratio vs BBIt-AV), amino acid present in BBIsb3-AV: M (+/−)

B6: A35D: BBIt-AV (SEQ ID NO:187) with single substitution A35D (protein)
chain: B1 chain with A35D, T50F
modifications: synthetic BBIt-AV sequence
relative activity of the amino acid substitution (BBI:BCE activity ratio vs BBIt-AV), amino acid present in BBIsb3-AV: D (+/−)

B7: V52F: BBIt-AV (SEQ ID NO:187) with single substitution V52F (protein)
chain: B1 chain with T50F, V52F
modifications: synthetic BBIt-AV sequence
relative activity of the amino acid substitution (BBI:BCE activity ratio vs BBIt-AV), amino acid present in BBItc-AV: F (+/−)

B8: Q11L: BBIt-AV (SEQ ID NO:187) with single substitution Q11L (protein)
chain: B1 chain with Q11L, T50F
modifications: synthetic BBIt-AV sequence
relative activity of the amino acid substitution (BBI:BCE activity ratio vs BBIt-AV), amino acid present in BBIsb3-AV: L (+/−)**

B9: F50R: BBIt-AV (SEQ ID NO:187) with single substitution F50R (protein)
chain: B1 chain with T50R
modifications: synthetic BBIt-AV sequence
BBIt-AV:BCE activity ratio relative to unmodified BBIt-AV: best BBIt-AV:BCE-activity ratio | relative activity of the amino acid substitution (BBI:BCE activity ratio vs BBIt-AV), amino acid present in BBIsb3-AV: R (++) (the greater the number of “+”, the greater the difference.) | relative activity of the amino acid substitution (BBI:BCE activity ratio vs BBIt-AV), amino acid present in BBItc-AV: R (++) (the greater the number of “+”, the greater the difference.)

B10: R23H: BBIt-AV (SEQ ID NO:187) with single substitution R23H (protein)
chain: B1 chain with R23H, T50F
modifications: synthetic BBIt-AV sequence
relative activity of the amino acid substitution (BBI:BCE activity ratio vs BBIt-AV), amino acid present in BBItc-AV: H (−)

B11: S25A: BBIt-AV (SEQ ID NO:187) with single substitution S25A (protein)
chain: B1 chain with S25A, T50F
modifications: synthetic BBIt-AV sequence
relative activity of the amino acid substitution (BBI:BCE activity ratio vs BBIt-AV), amino acid present in BBItc-AV: A (+)

B12: F50V: BBIt-AV (SEQ ID NO:187) with single substitution F50V (protein)
chain: B1 chain with T50V
modifications: synthetic BBIt-AV sequence
relative activity of the amino acid substitution (BBI:BCE activity ratio vs BBIt-AV), amino acid present in BBIdb-AV: V (+)

B13: M27I: BBIt-AV (SEQ ID NO:187) with single substitution M27I (protein)
chain: B1 chain with M27I, T50F
modifications: synthetic BBIt-AV sequence
relative activity of the amino acid substitution (BBI:BCE activity ratio vs BBIt-AV), amino acid present in BBIsb3-AV: I (+/−) | relative activity of the amino acid substitution (BBI:BCE activity ratio vs BBIt-AV), amino acid present in BBItc-AV: I (+/−)

B14: R23S: BBIt-AV (SEQ ID NO:187) with single substitution R23S (protein)
chain: B1 chain with R23S, T50F
modifications: synthetic BBIt-AV sequence
relative activity of the amino acid substitution (BBI:BCE activity ratio vs BBIt-AV), amino acid present in BBIsb3-AV: S (−−−) (the greater the number of “−”, the greater the difference.)

B15: S25E: BBIt-AV (SEQ ID NO:187) with single substitution S25E (protein)
chain: B1 chain with S25E, T50F
modifications: synthetic BBIt-AV sequence
relative activity of the amino acid substitution (BBI:BCE activity ratio vs BBIt-AV), amino acid present in BBIsb3-AV: E (−−−) (the greater the number of “−”, the greater the difference.)

B16: N18I: BBIt-AV (SEQ ID NO:187) with single substitution N18I (protein)
chain: B1 chain with N18I, T50F
modifications: synthetic BBIt-AV sequence
relative activity of the amino acid substitution (BBI:BCE activity ratio vs BBIt-AV), amino acid present in BBIdb-AV: I (+++) (the greater the number of “+”, the greater the difference.) | relative activity of the amino acid substitution (BBI:BCE activity ratio vs BBIt-AV), amino acid present in BBItc-AV: I (+++) (the greater the number of “+”, the greater the difference.)

B17: S25T: BBIt-AV (SEQ ID NO:187) with single substitution S25T (protein)
chain: B1 chain with S25T, T50F
modifications: synthetic BBIt-AV sequence
relative activity of the amino acid substitution (BBI:BCE activity ratio vs BBIt-AV), amino acid present in BBIdb-AV: T (+/−)

B18: K37E: BBIt-AV (SEQ ID NO:187) with single substitution K37E (protein)
chain: B1 chain with K37E, T50F
modifications: synthetic BBIt-AV sequence
relative activity of the amino acid substitution (BBI:BCE activity ratio vs BBIt-AV), amino acid present in BBItc-AV: E (+/−)

B19: K37S: BBIt-AV (SEQ ID NO:187) with single substitution K37S (protein)
chain: B1 chain with K37S, T50F
modifications: synthetic BBIt-AV sequence
relative activity of the amino acid substitution (BBI:BCE activity ratio vs BBIt-AV), amino acid present in BBIdb-AV: S (+/−)

Source: US7772181B2, “Personal care compositions comprising modified variant Bowman Birk Protease Inhibitors” (Danisco US Inc., priority 2008, dated 2010)
